Assay results as given in the domain aggregation screens of Martell et al. (2025).

Experiment: soluble fraction after stress (log2 fold change); higher = more stays soluble; pooled small domains, quantitative proteomics
Settings: stress: pH 4
Method in brief: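 Aggregation propensity is estimated from the fold change in each domain's soluble amount after acid stress. Pooled small-domain libraries were stressed at pH 4, and higher log2 values mean more stayed soluble.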

Row | Sequence | soluble fraction (log2)
1 | HMHSESAAHQRTSVELFARIPETGNLQSAQRHFDVINQFGRFPHRNKILQRPSSEQEEAFLRQPGSG | -0.0644
2 | HMHSILDDIPTVGPARRKALMRRYESLEAIRQATVDELKELPEINEASAEAIVSFFAGQAKEG | -1.13
3 | HMHSRTWTSADGVKTFEGELQSYDAASGKVSVILPNHKRITFKQEKLSADDIAWLEKNGNRP | 0.218
4 | HMHTGLTNYEYKQIKSSLLKILTQSESMRLGELVDKVDQFESEKVTTVIRFLVGNEELMLFDDTLTLKKQL | -0.232
5 | HMHTTIIVASRDIAAGSVLTSHDLSSVAWVGGAVPKGSYTAADLAVGKTAFTAFQQGEPILESRLAS | 0.317
6 | HMHVVVIDKQGALSYQGKAITLLDLKNIVIDVPKETPFLIKADKDIHLQSFVEVLDLIKTAGFKKVSLQ | -0.459
7 | HMIAANMTISQRIAAALAEYGVMSVKDIAQEVLGATDKKDTEKIRVTLTRDHGKRFRTYSDGTWSLKDWRP | 0.234
8 | HMIAAVIAQVANTNERIILEKRYLSFKSWDEIAVEMRISPRWAYTLHERALKAVDQVLSKQNNE | -2.54
9 | HMIADDLKSLEGVDQDMLRDLAEAGINTRDDLAELAIDELIEITGVSTEEAEKVIMAARAHWFEEES | -1.74
10 | HMIAKEDDGTAFLIDGKISSEEEFKTISKDDILEVFVYKETEIAQKKLDSINSINNTYYTSLIEILLKE | -0.854
11 | HMIAKIEGQISYVGNRFLIVDVSGVGYKLFVTNEAISLSKVEESIKLWVHTAVRENSIDLYG | 0.22
12 | HMIANDDEIRKVVLEVIEEQPKAVEDVKNGRDRILDFLVGQVMKKTRGKANPSLASNLMKEEIEK | -0.11
13 | HMIANNFDEFVEKVSEAERKALNMPAGQEMTQKLLEMKLAANPNLTPEEWQRTKSEFMTFLFAVFVRE | -1.02
14 | HMIAVLEEGSHFRAVNDVTGKPFGPEMVIKNGQVTAVGKTISTKPKNLLGKKEGTKFVISGKQYVIKDI | -0.103
15 | HMIDAHTALLAKRLEAKGMLPLTDKSSAEEIYAEFGISKKAFKKALGALYKERLVRIGEDGVVWI | 0.0608
16 | HMIDFIGLEAKLLSTISGEKMGNAEVIVDGNVMNIYVKSLDTSEIKFRENVLIIKQSDDKNYYLVAKP | -1.01
17 | HMIDIDTILKKYKPGRRDELIPLMQEIQEVYGHLSEEAVVKIGTYVGLSTTKIYGLATFYDQFRF | -0.874
18 | HMIDLGKSRTWHSENGRAIEARVINISEEQQTVEMQRVDGLKFELSWNQLSKADQTLLAEAAKKTALVA | 0.276
19 | HMIDLPDIDIDFAKRTGVLEHITHTPARLETGKQHNTGVYFTDIPRGVDGLATMDHKRAEQLGYFKLDML | -0.172
20 | HMIDNKIIRSLRQKRNMTLEELAKKANISVSYLSEIELGKKQPSLETINKLSQALNISREGLI | 0.22
21 | HMIDPHGSLTLDLRPRDARVEIIDSNKTYKPGVRLPMGEYAIAVSRRGYISETKRINIEYGDNRERVAL | -0.00328
22 | HMIDSDENERIKELIKALISETLKSRGVSPEVISDIKERVDRLHNEELPRFAAELKELISRN | -0.209
23 | HMIDSEEVMETIQDLGYSPVFDVKEKFYKIKEEQIGKITLEVHIILRYGMVDLVWIVRENGELLLG | -0.454
24 | HMIDTLEYIISEESKGLRADQAITMVNGEFSRSLIQKWIKKGSILVNGKKIKPRDILNLNDKVTINPEEN | -0.633
25 | HMIEDMQQWIRQIREIVSNRLDLTRNISDDEIREVISDIVMEQSRQQYMSLNEKKTLMEGVFNSMR | -0.977

Row | Sequence | soluble fraction (log2)
26 | HMIEEIETQFLFDFGLIGHPNSAKIREKLSEALGIGYVNGKQLQKRLMMFGITKQQVVDVLTD | -2.3
27 | HMIEMAGGYRKGDRVELHSLKGAAEHNGKQGTVVGPQGERVKVLLDDSDSKTLALKVTNLTKLESA | 0.0709
28 | HMIEMGNRIRTLRKRRVGSQSEFAEKLDVSVVTISRIENGMTKIDAELLIKMSEVLQVPVNIILGM | -1.7
29 | HMIENPGQTFERIAGKITRTLRTGPLRIQQLDLLFSESGEQVMDVLRAMAENGEILIKDDTIQWNGHN | -0.387
30 | HMIERKLRKKEHFIASVGEKVKIKNFATETYKGELISADNEKVVVETEFGKEEITYDNILAAATYFE | -1.01
31 | HMIFNENLKSAREKKGLSQKEVAEAIGVAKSTYSLYESGNREPNVQTIKRIADVLNVSADVLLGL | 0.332
32 | HMIGELVVEDLAAASEINVDTIRYYQRLGLLEPPRRRGRRAVYDHTHLERLAEIRRLAGAGFTLAQIGRLK | -1.23
33 | HMIGILSDREAEILALLDEGLTNKAIGRRLNLAEPTVKFHLKNLYAKLGVGRRQLAVNVAKGSGLLNSD | -0.167
34 | HMIGIRLKELVLKNQSAWVGLRVSELDISRKTMIVMIRRGDKMLIPNGSTILRSGDVLLLYTR | -0.354
35 | HMIGITTANLNVRTGTDTNYTSIAILPKGTKVNILEENVKPGWYKIQFDEIYAFVSSKYIKIQS | 0.243
36 | HMIGMDMQELIGRYKGDPDEMGKIELAAMSMLKLSEDMSSDHVLQKSKLRQDGLWLLKYVQE | -1.03
37 | HMIHEQSLHKIRNFIGSLPESLRTAFTLREQDGLSYEEIGKITNTPIGTVRSRIYRARESILDHINQE | -0.2
38 | HMIHIGAQEALGEFQDEEGNLTASKKEVVAALVKKSKEVSFPTSYEYEVAARMAADEYNDAGQRMA | -0.079
39 | HMIHKTDAINLGQRLLKSSLKEFDVSLKDIPNKTLMYILSEYKFNSLDDLYREIGLGNVIPKLVALRMAP | -0.436
40 | HMIHTYVETRKVGNNDGLIRVDNKYYRVPQHLVGMKVQIQIDEATISVLQGGVMVATLDKTADVFNPQA | -1.74
41 | HMIIDPQIRTLWTSQIIDILKSNPKRSIRSILELYPSNKESWVLIILQELIGEEKIIRDLDYLYFNK | -1.26
42 | HMIIIMKMGADESQVQETIKRIKDLGFNTHLSKGENRTIIGVIGDVSSIDESDVERLRATPYIAEVVRVS | 0.417
43 | HMIIIPKKDYDVSQLDNLVSWLKDRGLEVHISRGENLTVIGLIGDTSKIDIDLIRSLDVVEEVKRIQ | -1.31
44 | HMIIVMASSKKEDVAHVVHKIEELGYKAHVIVGVERTVVAAVGDERGKERLISLEALPHVEKVFPILK | -0.167
45 | HMIKEVEYSQFLQMTDQGEVGKVEINEQENSILFTDKAEKNIYKTGMVEDAELSMRLYEAGIPFSGQI | -2.29
46 | HMIKEYEVLNYVTYEYDEIKKKLEEDFGIIVLMKEAYSDETPAGIIMDQDVEQGRIFKEGATNTITFTVS | -1.2
47 | HMIKLSEAEWKVMKLLWEESPKTMMQITNLLKETTGWTKHTVMTFLKRMEEKKAIHYEEGGRAKLYYP | -0.0902
48 | HMIKVASVDGASDELAHEIREIMPLDFPVSYFDLDIKYLHKVLNDIPAVESAAIKVTVSGVLQIDISER | 0.248
49 | HMILALAISSEEDDARIYATYADRLREAYPASARVFEGMVDEEHEHRRRLIDLFQRRFGDTIPLVRREHV | -0.836
50 | HMILNPADEEKMNLINFELQQRGLEINDKEMQYIFTHHSRDLNSLLNLAEKLDEISHQEKKSISINLIKKI | -0.158
